Data from the supplement of paper PMC10567573.

B1: SETD8 (parent)
chain: FVVEYHGDLIEITDAKKREALYAQ

Variants of: B1
Test: protein stability index of a GFP-peptide fusion (GPS, HEK-293T) (PSI 1-6); higher = more stable
Conditions: c terminus: a fixed tail appended
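Further: lentivirally expressed fusions sorted by FACS into six bins by GFP to DsRed ratio, PSI derived from sequencing read proportions per bin multiplied by bin number.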

Variant	protein stability index
FVVEYHGDLIEITDAKKREALLAQ	1.47
FVVEYHGDLIEITDAKKREALSAQ	1.68
FVVEYHGDLIEITDAKKREALEAQ	2.6
FVVEYHGDLIEITDAKKREALPAQ	2.29
FVVEYHGDLIEITDAKKREALIAQ	1.94
FVVEYHGDLIEITDAKKREALKAQ	2.88
FVVEYHGDLIEITDAKKREALTAQ	1.76
FVVEYHGDLIEITDAKKREALDAQ	2.21
FVVEYHGDLIEITDAKKREALQAQ	2.06
FVVEYHGDLIEITDAKKREALFAQ	1.79
FVVEYHGDLIEITDAKKREALHAQ	1.84
FVVEYHGDLIEITDAKKREALRAQ	1.99
FVVEYHGDLIEITDAKKREALVAQ	2.08
FVVEYHGDLIEITDAKKREALWAQ	1.56
FVVEYHGDLIEITDAKKREALCAQ	2.13
FVVEYHGDLIEIPDAKKREALYAQ	2.65
FVVEYHGDLIEIYDAKKREALYAQ	1.78
FVVEYHGDLIEIQDAKKREALYAQ	3.21
FVVEYHGDLIEIVDAKKREALYAQ	3.05
FVVEYHGDLIEIRDAKKREALYAQ	2.07
FVVEYHGDLIEISDAKKREALYAQ	2.46
FVVEYHGDLIEIMDAKKREALYAQ	1.5
FVVEYHGDLIEINDAKKREALYAQ	1.96
FVVEYHGDLIEITDAKKIEALYAQ	3.16

Variant	protein stability index
FVVEYHGDLIEITDAKKSEALYAQ	2.04
FVVEYHGDLIEITDAKKFEALYAQ	1.75
FVVEYHGDLIEITDAKKCEALYAQ	2.32
FVVEYHGDLIEITDAKKTEALYAQ	1.57
FVVEYHGDLIEITDAKKAEALYAQ	1.74
FVVEYHGDLIEITDAKKLEALYAQ	1.87
FVVEYHGDLIEITDAKKGEALYAQ	1.24
FVVEYHGDLIEITDAKKYEALYAQ	2.2
FVVEYHGDLIEITDAKKHEALYAQ	2.39
FVVEYHGDLIEITDAKKVEALYAQ	1.82
FVVEYHGDLIEITDAKKWEALYAQ	2.33
FVVEYHGDLIEITDAKKMEALYAQ	2.98
FVVEYHGDLIEITDAKKNEALYAQ	2.31
FVVEYHGDLIEITDAKKQEALYAQ	1.46
FVVEYHGDLIEITDAKKPEALYAQ	1.56
FVVEYHGDLIEITDAKKDEALYAQ	2.27
FVVEYHGDLIEITDAHKREALYAQ	2.3
FVVEYHGDLIEITDAIKREALYAQ	1.78
FVVEYHGDLIEITDAMKREALYAQ	1.59
FVVEYHGDLIEITDANKREALYAQ	1.68
FVVEYHGDLIEITDASKREALYAQ	2.59
FVVEYHGDLIEITDADKREALYAQ	2.05
FVVEYHGDLIEITDAAKREALYAQ	1.7
FVVEYHGDLIEITDAPKREALYAQ	1.5

Variant	protein stability index
FVVEYHGDLIEITDATKREALYAQ	1.28
FVVEYHGDLIEITDAGKREALYAQ	1.51
FVVEYHGDLIEITDAEKREALYAQ	2.08
FVVEYHGDLIEITDAQKREALYAQ	2.48
FVVEYHGDLIEITDAFKREALYAQ	2.13
FVVEYHGDLIEITDARKREALYAQ	2.07
FVVEYHGDLIEITDACKREALYAQ	1
FVVEYHGDLIEITDAWKREALYAQ	3.04
FVVEYHGDLIEITDAVKREALYAQ	1.76
FVVEYHGDLIEITDKKKREALYAQ	2.33
FVVEYHGDLIEITDRKKREALYAQ	3.06
FVVEYHGDLIEITDIKKREALYAQ	2.04
FVVEYHGDLIEITDMKKREALYAQ	2.69
FVVEYHGDLIEITDPKKREALYAQ	2.73
FVVEYHGDLIEITDFKKREALYAQ	2.25
FVVEYHGDLIEITDNKKREALYAQ	1.43
FVVEYHGDLIEITDEKKREALYAQ	2.08
FVVEYHGDLIEITDYKKREALYAQ	1.13
FVVEYHGDLIEITDLKKREALYAQ	1.93
FVVEYHGDLIEITDHKKREALYAQ	1.87
FVVEYHGDLIEITDVKKREALYAQ	2.3
FVVEYHGDLIEITDDKKREALYAQ	1.82
FVVEYHGDLIEITDGKKREALYAQ	2.23
FVVEYHGDLIEITDWKKREALYAQ	2.37

Variant	protein stability index
FVVEYHGDLIEITDCKKREALYAQ	1.67
FVVEYHGDLIEITDTKKREALYAQ	1.51
FVVEYHGDLIEITDSKKREALYAQ	1.88
FVVEYHGDLIEITDQKKREALYAQ	2.22
FVVEYHGDLIEITDAKKRRALYAQ	2.84
FVVEYHGDLIEITDAKKRMALYAQ	2.3
FVVEYHGDLIEITDAKKRGALYAQ	1.75
FVVEYHGDLIEITDAKKRTALYAQ	2.42
FVVEYHGDLIEITDAKKRQALYAQ	1.7
FVVEYHGDLIEITDAKKRDALYAQ	1.51
FVVEYHGDLIEITDAKKRKALYAQ	1.47
FVVEYHGDLIEITDAKKRHALYAQ	1.64
FVVEYHGDLIEITDAKKRFALYAQ	2.97
FVVEYHGDLIEITDAKKRAALYAQ	2.41
FVVEYHGDLIEITDAKKRNALYAQ	1.27
FVVEYHGDLIEITDAKKRCALYAQ	2.87
FVVEYHGDLIEITDAKKRVALYAQ	1.51
FVVEYHGDLIEITDAKKRSALYAQ	1.81
FVVEYHGDLIEITDAKKRYALYAQ	1.81
FVVEYHGDLIEITDAKKRPALYAQ	1.84
FVVEYHGDLIEITDAKKRLALYAQ	3.57
FVVEYHGDLIEITDAKKRWALYAQ	1.96
